Test results reported in the Immune Epitope Database (IEDB).

Columns and labels:
HLA-A*24:02 = assay: IEDB peptide-MHC binding, purified MHC/competitive/radioactivity; filed as Kd, often an IC50 or EC50 that approximates it; ≥ and ≤ were set here for values at or beyond the usual limits of such assays
HLA-B*44:03 = assay: as above
HLA-B*44:02 = assay: as above
HLA-A*23:01 = assay: as above
HLA-A*29:02 = assay: as above
HLA-A*26:01 = assay: as above
HLA-A*01:01 = assay: as above
HLA-A*30:02 = assay: as above
HLA-A*03:01 [1] = assay: IEDB peptide-MHC binding, purified MHC/direct/fluorescence; filed as Kd, often an IC50 or EC50 that approximates it; ≥ and ≤ were set here for values at or beyond the usual limits of such assays
HLA-B*58:01 = assay: as above
HLA-A*11:01 [2] = assay: as above; conditions: source organism: Bacillus licheniformis
HLA-B*15:01 = assay: as above; conditions: source organism: Bacillus licheniformis
HLA-A*02:06 = assay: IEDB peptide-MHC binding, purified MHC/competitive/radioactivity; filed as Kd, often an IC50 or EC50 that approximates it; ≥ and ≤ were set here for values at or beyond the usual limits of such assays
HLA-A*02:03 = assay: as above
HLA-A*02:02 = assay: as above
HLA-A*03:01 [3] = assay: as above; conditions: source organism: Vaccinia virus WR
HLA-A*31:01 = assay: as above; conditions: source organism: Vaccinia virus WR
HLA-A*11:01 [4] = assay: as above; conditions: source organism: Vaccinia virus WR
HLA-A*68:01 = assay: as above; conditions: source organism: Vaccinia virus WR
HLA-A*33:01 = assay: as above; conditions: source organism: Vaccinia virus WR
[5] = source organism: Dengue virus 4 Philippines/H241/1956
[6] = source organism: Dengue virus 3 Martinique/1243/1999
[7] = source organism: Lymphocytic choriomeningitis virus (strain Armstrong)
[8] = source organism: Dengue virus 1 Nauru/West Pac/1974
[9] = source organism: Mammarenavirus whitewaterense
[10] = source organism: Dengue virus 4 Dominica/814669/1981
[11] = source organism: Dengue virus 2 Jamaica/1409/1983
[12] = source organism: Dengue virus 3 Sri Lanka/1266/2000
[13] = source organism: Vaccinia virus WR
[14] = source organism: SARS coronavirus Tor2
[15] = source organism: Lassa virus Josiah

TWAKNIHTAI
Kd (HLA-A*24:02; [5]): 2000 nM

SEMGANFRAG
Kd (HLA-B*44:03; [5]): 868 nM
Kd (HLA-B*44:02; [5]): 95 nM

NEEKITQQM
Kd (HLA-B*44:02; [6]): 578 nM

CWLVTNGSYL
Kd (HLA-A*24:02; [7]): 841 nM
Kd (HLA-A*23:01; [7]): 138 nM
Kd (HLA-A*29:02; [7]): 2890 nM

EAEPPFGESY
Kd (HLA-A*26:01; [8]): 669 nM
Kd (HLA-A*01:01; [8]): 1360 nM

LTLTAAVLLL
Kd (HLA-A*01:01; [6]): 13900 nM

LVQIENLEY
Kd (HLA-A*30:02; [5]): 1110 nM
Kd (HLA-A*01:01; [5]): 90.4 nM

PYVPMPCMI
Kd (HLA-A*24:02; [9]): 57.4 nM
Kd (HLA-A*23:01; [9]): 41.7 nM
Kd (HLA-A*29:02; [9]): ≥ 60700 nM

KEVALLRTYC
Kd (HLA-B*44:03; [5]): 128 nM

MSPGYVLGVF
Kd (HLA-A*26:01; [10]): 1600 nM
Kd (HLA-A*24:02; [10]): 1480 nM
Kd (HLA-A*23:01; [10]): 1000 nM

TTEAILPEY
Kd (HLA-A*30:02; [6]): ≥ 54300 nM
Kd (HLA-A*26:01; [6]): 1180 nM
Kd (HLA-A*01:01; [6]): 30.6 nM

HFFMKHPNK
Kd (HLA-A*03:01 [1]; source organism: Coxiella burnetii): 218 nM

ETLMLLALIA
Kd (HLA-A*26:01; source organism: Dengue virus 1 Brazil/97-11/1997): ≥ 33600 nM

RDTAEAAKW
Kd (HLA-B*58:01; source organism: Mycobacterium tuberculosis variant bovis): 1590 nM

VLVGVVTLY
Kd (HLA-A*30:02; [11]): 58.3 nM
Kd (HLA-A*26:01; [11]): 13600 nM

DTSEVHWNY
Kd (HLA-A*30:02; [5]): 3860 nM
Kd (HLA-A*26:01; [5]): 41.6 nM
Kd (HLA-A*01:01; [5]): 111 nM

LTDFQSHQL
Kd (HLA-A*01:01; source organism: Dengue virus 1 Singapore/S275/1990): 6440 nM

GVGAPTTTY
Kd (HLA-A*03:01 [1]; source organism: Bacillus licheniformis): 7450 nM
Kd (HLA-A*11:01 [2]): 10100 nM
Kd (HLA-B*15:01): 120 nM

MEAQLVRQM
Kd (HLA-B*44:03; [12]): 123 nM
Kd (HLA-B*44:02; [12]): 14.7 nM

IYGAAFSGV
Kd (HLA-A*24:02; [11]): 398 nM

RYPLTFGWCF
Kd (HLA-A*24:02; source organism: HIV-1 M:B_ARV2/SF2): 17 nM

ENPYRTWAYH
Kd (HLA-A*26:01; [5]): ≥ 69700 nM

FTDPSSVAA
Kd (HLA-A*01:01; [5]): 1.71 nM
Kd (HLA-A*02:06; [5]): 59.4 nM

FMLNVSYLC
Kd (HLA-A*02:03; [7]): 1250 nM
Kd (HLA-A*02:02; [7]): 196 nM
Kd (HLA-A*02:06; [7]): 932 nM

FLDWIKDIMT
Kd (HLA-A*02:03; [13]): 146 nM
Kd (HLA-A*02:02; [13]): 424 nM
Kd (HLA-A*02:06; [13]): 140 nM

PLPSLEYGA
Kd (HLA-A*02:03; [13]): 18900 nM
Kd (HLA-A*02:02; [13]): 11400 nM
Kd (HLA-A*02:06; [13]): ≥ 42500 nM

PFDTRQMLFY
Kd (HLA-A*01:01; source organism: Homo sapiens): 252 nM

LSNAGSNNW
Kd (HLA-B*58:01; source organism: Mycobacterium tuberculosis): 48.6 nM

ELENKKVEYV
Kd (HLA-A*02:03; [13]): 3650 nM
Kd (HLA-A*02:02; [13]): ≥ 21400 nM
Kd (HLA-A*02:06; [13]): ≥ 69800 nM

FSCGLSLQDY
Kd (HLA-A*03:01 [3]): 977 nM
Kd (HLA-A*31:01): 2310 nM
Kd (HLA-A*11:01 [4]): 269 nM
Kd (HLA-A*68:01): 263 nM
Kd (HLA-A*29:02; [13]): ≥ 71400 nM
Kd (HLA-A*33:01): 9250 nM

YVILKDPRIA
Kd (HLA-A*02:03; [13]): 355 nM
Kd (HLA-A*02:02; [13]): 6010 nM
Kd (HLA-A*02:06; [13]): 1900 nM

YLMCLSPLM
Kd (HLA-A*02:03; [14]): 0.297 nM
Kd (HLA-A*02:02; [14]): 0.137 nM
Kd (HLA-A*02:06; [14]): 1.12 nM

EAFETQSGAL
Kd (HLA-A*02:03; [13]): 995 nM
Kd (HLA-A*02:02; [13]): 8560 nM
Kd (HLA-A*02:06; [13]): 15000 nM

VAKCCSKTNT
Kd (HLA-A*02:03; [13]): ≥ 21700 nM
Kd (HLA-A*02:02; [13]): 14700 nM
Kd (HLA-A*02:06; [13]): ≥ 40800 nM

ILISLINSLV
Kd (HLA-A*02:03; [13]): 3.08 nM
Kd (HLA-A*02:02; [13]): 22.9 nM
Kd (HLA-A*02:06; [13]): 151 nM

TQSGALEVLM
Kd (HLA-A*02:03; [13]): 15400 nM
Kd (HLA-A*02:02; [13]): 836 nM
Kd (HLA-A*02:06; [13]): 2230 nM

DINESMSQMV
Kd (HLA-A*02:03; [13]): 488 nM
Kd (HLA-A*02:02; [13]): 312 nM
Kd (HLA-A*02:06; [13]): 4150 nM

CGRGGWSYY
Kd (HLA-A*30:02; [6]): 253 nM

QIFNIISYII
Kd (HLA-A*02:03; [13]): 206 nM
Kd (HLA-A*02:02; [13]): 288 nM
Kd (HLA-A*02:06; [13]): 743 nM

HYLCLNCLT
Kd (HLA-A*30:02; [15]): 3020 nM
Kd (HLA-A*26:01; [15]): ≥ 77900 nM
Kd (HLA-A*01:01; [15]): 6910 nM

IGKMFESTY
Kd (HLA-A*30:02; [10]): 338 nM

ITLTAALLLL
Kd (HLA-A*01:01; [11]): 5940 nM
Kd (HLA-A*02:06; [11]): 27.4 nM

YCHGILLKDV
Kd (HLA-A*02:03; [9]): 13000 nM
Kd (HLA-A*02:02; [9]): ≥ 70000 nM
Kd (HLA-A*02:06; [9]): 14900 nM

AEITPQAST
Kd (HLA-B*44:02; [6]): 16.5 nM

MELKYSWKT
Kd (HLA-B*44:03; [6]): 343 nM

IAVSVYGAI
Kd (HLA-A*02:03; [13]): 124 nM
Kd (HLA-A*02:02; [13]): 1480 nM
Kd (HLA-A*02:06; [13]): 1100 nM
